Laboratory results from patent publication US20250382622A1 (UNIVERSIT T BERN, published 2025).

Molecular target: T1, human Claudin-3 (human, UniProt O15551 1-220)
T1 sequence: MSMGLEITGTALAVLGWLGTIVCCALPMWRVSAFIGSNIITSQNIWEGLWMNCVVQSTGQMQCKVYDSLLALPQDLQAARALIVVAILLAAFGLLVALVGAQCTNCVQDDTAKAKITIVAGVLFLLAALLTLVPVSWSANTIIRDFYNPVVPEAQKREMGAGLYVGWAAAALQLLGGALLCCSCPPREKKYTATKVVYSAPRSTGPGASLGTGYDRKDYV
Assay: cell-based or functional assay

claudin-3/beta-actin ratio by western blot, human hepatocytes, 24 h, 1 nM antibody: ~45 % of control | claudin-3/beta-actin ratio by western blot, human hepatocytes, 24 h, 30 nM antibody: ~30 % of control | claudin-3/beta-actin ratio by western blot, human hepatocytes, 24 h, 100 nM antibody: ~10 % of control
B1: GalNAc functionalized UB-VS003 (antibody, mouse IgG2a, kappa, V domains shown)
VH: EVQLQQSGPELVKPGGSMKISCKASGYSFTGYTMNWVKQSHGKNLEWIGLINPYNDGTNYNQKFKGKATLTVDKSSSTAYMELLSLTSEDSAVYYCSKKGGGYGGTWFAYWGQGTLVTVSA
VL: DIVMSQSPSSLAVSVGEKVTMSCKSSPSLLYSNNQKNYLAWYQQKPGQSPKLLIYWASTRESGVPDRFTGSGSGTDFTLTISSVKAEDLAVYYCQQYYSFPYTFGGGTKLEIKR
modifications: reacted with 25 equivalents of DBCO-PEG4-NHS, then with 100 equivalents of Trebler GalNAc-Azide; modified residues and chain not stated
